# According to patent US20260001937A1, “NOVEL RECOMBINANT FIBRINOGEN VARIANTS FOR FIBRIN SEALANTS FOR SURGICAL WOUND CARE” (Julius-Maximilians-Universität Würzburg, priority 2022, published 2026):
# T1: Ala-rFbg (recombinant fibrinogen, gamma-chain K88A, K111A, K382A, K399A)
# T1 chain 1: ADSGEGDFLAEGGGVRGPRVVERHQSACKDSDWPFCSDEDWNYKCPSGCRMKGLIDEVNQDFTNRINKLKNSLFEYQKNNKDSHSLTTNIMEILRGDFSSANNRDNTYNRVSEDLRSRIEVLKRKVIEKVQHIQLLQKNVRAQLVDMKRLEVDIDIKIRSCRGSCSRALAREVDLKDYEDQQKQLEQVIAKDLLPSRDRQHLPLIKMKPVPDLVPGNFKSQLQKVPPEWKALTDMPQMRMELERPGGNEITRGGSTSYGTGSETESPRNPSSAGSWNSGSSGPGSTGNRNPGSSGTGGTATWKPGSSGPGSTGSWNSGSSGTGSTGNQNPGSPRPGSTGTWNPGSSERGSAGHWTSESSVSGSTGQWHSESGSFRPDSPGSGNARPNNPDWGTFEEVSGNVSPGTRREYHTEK
# T1 chain 2: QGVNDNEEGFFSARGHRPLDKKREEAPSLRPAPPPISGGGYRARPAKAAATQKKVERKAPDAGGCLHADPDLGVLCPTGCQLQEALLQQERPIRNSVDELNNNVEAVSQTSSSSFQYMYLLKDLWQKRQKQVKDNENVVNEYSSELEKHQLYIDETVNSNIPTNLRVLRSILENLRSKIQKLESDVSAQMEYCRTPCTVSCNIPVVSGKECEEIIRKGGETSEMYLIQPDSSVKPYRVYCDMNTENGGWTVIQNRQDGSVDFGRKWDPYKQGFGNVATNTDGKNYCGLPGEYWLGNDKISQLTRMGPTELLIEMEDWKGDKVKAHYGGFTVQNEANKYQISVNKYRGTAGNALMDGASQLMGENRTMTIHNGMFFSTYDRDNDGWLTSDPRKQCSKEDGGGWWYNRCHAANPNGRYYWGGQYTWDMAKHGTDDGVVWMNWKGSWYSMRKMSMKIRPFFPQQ
# T1 chain 3: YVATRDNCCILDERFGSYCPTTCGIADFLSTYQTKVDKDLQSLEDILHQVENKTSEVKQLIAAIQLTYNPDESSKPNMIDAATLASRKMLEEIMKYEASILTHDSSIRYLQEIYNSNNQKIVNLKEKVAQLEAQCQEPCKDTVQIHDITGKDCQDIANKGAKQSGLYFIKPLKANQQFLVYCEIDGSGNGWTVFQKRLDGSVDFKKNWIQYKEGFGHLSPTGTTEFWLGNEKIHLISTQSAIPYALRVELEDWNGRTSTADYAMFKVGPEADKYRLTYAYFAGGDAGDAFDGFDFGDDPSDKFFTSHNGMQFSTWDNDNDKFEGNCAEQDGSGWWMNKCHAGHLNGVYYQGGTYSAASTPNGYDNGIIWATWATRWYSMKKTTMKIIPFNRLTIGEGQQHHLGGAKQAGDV
# T2: His-rFbg (recombinant fibrinogen, gamma-chain K88H, K111H, K382H, K399H)
# T2 chain 1: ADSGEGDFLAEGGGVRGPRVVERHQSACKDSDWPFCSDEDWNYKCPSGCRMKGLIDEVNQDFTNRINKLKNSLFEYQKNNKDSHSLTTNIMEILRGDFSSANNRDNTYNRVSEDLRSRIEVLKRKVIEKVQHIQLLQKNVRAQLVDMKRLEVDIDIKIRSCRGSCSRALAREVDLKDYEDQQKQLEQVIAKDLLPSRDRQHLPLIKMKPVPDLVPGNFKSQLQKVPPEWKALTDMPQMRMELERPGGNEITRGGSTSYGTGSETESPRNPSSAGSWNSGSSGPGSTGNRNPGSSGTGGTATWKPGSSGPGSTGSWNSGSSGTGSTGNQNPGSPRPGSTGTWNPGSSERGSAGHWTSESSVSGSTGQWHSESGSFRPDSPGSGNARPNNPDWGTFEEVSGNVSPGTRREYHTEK
# T2 chain 2: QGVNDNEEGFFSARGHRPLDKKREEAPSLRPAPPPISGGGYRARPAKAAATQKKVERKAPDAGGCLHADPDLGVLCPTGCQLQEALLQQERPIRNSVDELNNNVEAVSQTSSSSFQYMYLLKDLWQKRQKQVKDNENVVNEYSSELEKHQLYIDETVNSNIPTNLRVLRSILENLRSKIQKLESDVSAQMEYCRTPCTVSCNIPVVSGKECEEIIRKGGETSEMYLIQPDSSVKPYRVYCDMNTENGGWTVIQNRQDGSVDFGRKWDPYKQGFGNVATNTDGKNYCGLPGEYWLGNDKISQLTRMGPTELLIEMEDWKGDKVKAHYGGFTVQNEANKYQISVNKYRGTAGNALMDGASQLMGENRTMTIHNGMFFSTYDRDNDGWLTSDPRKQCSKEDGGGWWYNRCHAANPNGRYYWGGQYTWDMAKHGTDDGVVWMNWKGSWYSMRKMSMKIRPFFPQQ
# T2 chain 3: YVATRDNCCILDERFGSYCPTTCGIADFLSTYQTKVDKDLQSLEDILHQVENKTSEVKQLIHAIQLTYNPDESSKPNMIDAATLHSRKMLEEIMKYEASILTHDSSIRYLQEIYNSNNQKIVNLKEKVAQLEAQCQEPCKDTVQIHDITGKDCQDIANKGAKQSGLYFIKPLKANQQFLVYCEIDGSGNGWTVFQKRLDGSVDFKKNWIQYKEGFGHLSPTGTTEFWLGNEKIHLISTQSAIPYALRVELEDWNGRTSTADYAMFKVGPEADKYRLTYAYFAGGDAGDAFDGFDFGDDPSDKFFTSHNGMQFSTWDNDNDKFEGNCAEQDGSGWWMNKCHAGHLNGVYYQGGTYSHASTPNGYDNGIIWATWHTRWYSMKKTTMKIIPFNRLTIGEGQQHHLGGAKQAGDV
# T3: WT-Fbg (human fibrinogen, SigmaAldrich), P02671
# T3 chain 1: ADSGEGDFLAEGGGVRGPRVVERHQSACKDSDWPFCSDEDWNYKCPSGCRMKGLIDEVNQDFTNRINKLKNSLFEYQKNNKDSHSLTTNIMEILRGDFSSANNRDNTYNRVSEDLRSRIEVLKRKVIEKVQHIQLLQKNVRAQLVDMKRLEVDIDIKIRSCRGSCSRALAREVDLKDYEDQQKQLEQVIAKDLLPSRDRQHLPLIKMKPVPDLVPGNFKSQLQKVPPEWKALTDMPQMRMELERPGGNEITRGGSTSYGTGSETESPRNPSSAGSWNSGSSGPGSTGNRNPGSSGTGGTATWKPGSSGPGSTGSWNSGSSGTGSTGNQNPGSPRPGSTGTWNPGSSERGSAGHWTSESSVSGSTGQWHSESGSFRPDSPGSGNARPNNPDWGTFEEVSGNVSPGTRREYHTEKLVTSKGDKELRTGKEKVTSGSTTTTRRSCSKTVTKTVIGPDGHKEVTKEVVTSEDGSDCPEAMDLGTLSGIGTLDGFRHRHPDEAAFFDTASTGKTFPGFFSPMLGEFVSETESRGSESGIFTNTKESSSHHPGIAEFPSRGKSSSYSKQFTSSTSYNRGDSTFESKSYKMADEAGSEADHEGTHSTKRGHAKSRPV
# T3 chain 2: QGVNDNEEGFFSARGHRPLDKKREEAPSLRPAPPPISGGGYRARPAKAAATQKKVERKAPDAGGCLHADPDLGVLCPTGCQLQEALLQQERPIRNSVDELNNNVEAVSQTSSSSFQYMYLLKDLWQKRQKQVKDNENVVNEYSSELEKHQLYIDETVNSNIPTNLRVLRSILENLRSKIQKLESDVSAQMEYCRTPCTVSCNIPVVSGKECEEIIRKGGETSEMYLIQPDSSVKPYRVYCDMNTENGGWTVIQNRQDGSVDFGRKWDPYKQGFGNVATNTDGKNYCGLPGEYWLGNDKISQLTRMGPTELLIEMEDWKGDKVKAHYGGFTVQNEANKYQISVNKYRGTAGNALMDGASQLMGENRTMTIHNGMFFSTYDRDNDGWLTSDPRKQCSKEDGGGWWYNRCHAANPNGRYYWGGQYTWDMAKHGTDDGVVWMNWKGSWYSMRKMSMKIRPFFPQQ
# T3 chain 3: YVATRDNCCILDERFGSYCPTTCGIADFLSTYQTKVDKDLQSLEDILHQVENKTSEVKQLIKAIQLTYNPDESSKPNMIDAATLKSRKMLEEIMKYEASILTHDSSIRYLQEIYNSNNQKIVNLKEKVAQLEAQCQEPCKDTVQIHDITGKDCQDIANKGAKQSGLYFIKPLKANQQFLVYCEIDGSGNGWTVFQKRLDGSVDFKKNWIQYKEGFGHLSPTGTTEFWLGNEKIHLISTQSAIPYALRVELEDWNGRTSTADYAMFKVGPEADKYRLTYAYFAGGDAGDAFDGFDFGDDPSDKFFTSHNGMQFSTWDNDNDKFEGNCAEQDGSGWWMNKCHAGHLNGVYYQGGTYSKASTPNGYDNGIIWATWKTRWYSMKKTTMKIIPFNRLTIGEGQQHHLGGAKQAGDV
# T4: synthetic gamma-chain peptide ATL(K)SRM with K changed to serine
# T4 chain: ATLSSRM
# T5: synthetic gamma-chain peptide ATW(K)TRW with K changed to serine
# T5 chain: ATWSTRW
# T6: synthetic gamma-chain peptide QLI(K)AIQ with K changed to serine
# T6 chain: QLISAIQ
# T7: synthetic gamma-chain peptide TYS(K)AST with K changed to serine
# T7 chain: TYSSAST
# How the values were obtained:
# [1] = target: T1, Ala-rFbg (recombinant fibrinogen, …)
# [2] = target: T2, His-rFbg (recombinant fibrinogen, …)
# [3] = target: T3, WT-Fbg (human fibrinogen, …)
# [4] = target: T4, synthetic gamma-chain peptide ATL(K)SRM …
# [5] = target: T5, synthetic gamma-chain peptide ATW(K)TRW …
# [6] = target: T6, synthetic gamma-chain peptide QLI(K)AIQ …
# [7] = target: T7, synthetic gamma-chain peptide TYS(K)AST …
protein,measurement,setting,value
human plasmin (Merck) (protein) KVYLSECKTGNGKNYRGTMSKTKNGITCQKWSSTSPHRPRFSPATHPSEGLEENYCRNPDNDPQGPWCYTTDPEKRYDYCDILECEEECMHCSGENYDGKISKTMSGLECQAWDSQSPHAHGYIPSKFPNKNLKKNYCRNPDRELRPWCFTTDPNKRWELCDIPRCTTPPPSSGPTYQCLKGTGENYRGNVAVTVSGHTCQHWSAQTPHTHNRTPENFPCKNLDENYCRNPDGKRAPWCHTTNSQVRWEYCKIPSCDSSPVSTEQLAPTAPPELTPVVQDCYHGDGQSYRGTSSTTTTGKKCQSWSSMTPHRHQKTPENYPNAGLTMNYCRNPDADKGPWCFTTDPSVRWEYCNLKKCSGTEASVVAPPPVVLLPDVETPSEEDCMFGNGKGYRGKRATTVTGTPCQDWAAQEPHRHSIFTPETNPRAGLEKNYCRNPDGDVGGPWCYTTNPRKLYDYCDVPQCAAPSFDCGKPQVEPKKCPGRVVGGCVAHPHSWPWQVSLRTRFGMHFCGGTLISPEWVLTAAHCLEKSPRPSSYKVILGAHQEVNLEPHVQEIEVSRLFLEPTRKDIALLKLSSPAVITDKVIPACLPSPNYVVADRTECFITGWGETQGTFGAGLLKEAQLPVIENKVCNRYEFLNGRVQSTELCAGHLAGGTDSCQGDSGGPLVCFEKDKYILQGVTSWGLGCARPNKPGVYVRVSRFVTWIEGVMRNN,plasmin cleavage analysis of target sites (peptide fragments detected by MS),[1],Position 382 shows a partial cleavage for the mutants (both cleaved and non-cleaved peptides detected)
same,"plasmin cleavage at the mutated gamma-chain sites 88, 111, 382, 399, high-resolution ESI-MS after 24 h digest in solution",[1],no cleavage was detected in either of the two mutants for all 4 mutations
same,plasmin cleavage analysis of target sites (peptide fragments detected by MS),[2],Position 382 shows a partial cleavage for the mutants (both cleaved and non-cleaved peptides detected)
same,"plasmin cleavage at the mutated gamma-chain sites 88, 111, 382, 399, high-resolution ESI-MS after 24 h digest in solution",[2],no cleavage was detected in either of the two mutants for all 4 mutations
same,"plasmin cleavage sites in the gamma-chain, high-resolution ESI-MS after 24 h digest in solution (0.5 U/mL plasmin)",[3],"the 4 different cleavage sites K88, K111, K382, K399 in the WT could be detected"
same,"plasmin cleavage efficiency of synthetic peptide, HPLC",[4],Peptide sequences including S instead of K showed a significant reduction in cleavage efficiency compared to the original sequences
same,"plasmin cleavage efficiency of synthetic peptide, HPLC",[5],Peptide sequences including S instead of K showed a significant reduction in cleavage efficiency compared to the original sequences
same,"plasmin cleavage efficiency of synthetic peptide, HPLC",[6],Peptide sequences including S instead of K showed a significant reduction in cleavage efficiency compared to the original sequences
same,"plasmin cleavage efficiency of synthetic peptide, HPLC",[7],Peptide sequences including S instead of K showed a significant reduction in cleavage efficiency compared to the original sequences
